# In patent US20100129344A1, “MEDICAL USES AND THERAPIES BASED UPON THE ACTION OF AZUROCIDIN ON IGFBP-1” (priority 2005, published 2010):
# T1: IGFBP-1 (Homo sapiens, UniProt P08833)
# T1 construct: purchased Kabi Pharmacia (Sweden), donated
# T1 sequence (P08833 26-259): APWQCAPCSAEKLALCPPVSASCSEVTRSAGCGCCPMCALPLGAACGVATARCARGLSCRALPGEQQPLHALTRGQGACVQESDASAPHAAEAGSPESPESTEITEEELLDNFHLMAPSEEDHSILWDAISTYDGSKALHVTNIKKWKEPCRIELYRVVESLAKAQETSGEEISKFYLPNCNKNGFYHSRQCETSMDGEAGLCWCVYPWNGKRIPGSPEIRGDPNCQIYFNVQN
# Key:
# [1] = pH increased from 5.5 to 6.5; cited from earlier work
# [2] = biological target: T1, IGFBP-1; assay: Azurocidin-dependent IGFBP-1 protease activity (SDS-PAGE, ECL or silver staining); assay type: biochemical
# Method: Recombinant phosphorylated IGFBP-1 was used as substrate and incubations were carried out under neutral conditions for 2 h at 37 C. IGFBP-1 fragments were separated on SDS-PAGE, and detected by ECL as described in the methods. Panel A: Incubations with 0.25 μL eluate (HE) from heparin affinity chromatography (50 μl urine equiv.) in the presence and absence of anti-azurocidin antibody; and 1 μl HE of the loading material (L), and the flow through after affinity chromatography on protein G columns without (G) and with bound anti-chymase (C) or anti-azurocidin (A) antibodies. Panel B: Incubations in the presence and absence of 25 ng anti-azurocidin antibody with increasing volumes of white cell extract from the individual with a specific IGFBP-1 protease in urine compared to the white cell extract pooled from 6 healthy subjects;
# Recombinant IGFBP-1 was incubated with the eluate from heparin affinity chromatography (HE) with a ratio of azurocidin:BP-1 of 1:3,500. After the times indicated, proteins were detected by silver staining after SDS-PAGE;
# Gels were fixed, dried and analysed with the Fuji PhosphoImage program (Fuji Co., Stockholm, Sweden). Biotinylated IGFBP-1 and its fragments were separated on 14% SDS-PAGE under reducing conditions, transferred to PVDF (Biorad, Sundbyberg, Sweden), incubated with neutravidin-horseradish peroxidase (Pierce Biotechnology Inc, Rochester, Ill.) and detected by ECL (Amersham Biosciences, Uppsala, Sweden). Silver staining of proteins and fragments was performed after denaturing 12% PAGE under reducing conditions (SilverQuest and NuPAGE, Invitrogen, Stockholm, Sweden).
# Heparin affinity chromatography was carried out in batches using heparin-agarose gel (Pharmacia). Urine was diluted 1:5 in 10 mM sodium phosphate, with 0.25 M NaCl buffer, pH 7 and incubated with gel for 30 min at 4 C. The gel was transferred to a column and washed with 10 times the gel volume of buffer. Heparin binding proteins were eluted in loading buffer containing 2M NaCl and the eluate was desalted, concentrated using a 10 kDa spin column and stored at −80 C. Concentrated material derived from 700 ml urine were applied to C4 reverse-phase HPLC, in 0.1% TFA on an acetonitrile gradient of 0-100%. Immunoaffinity chromatography was performed using monoclonal anti-azurocidin antibody attached to protein G Sepharose (Sigma-Aldrich, Sweden). In brief, antibody bound gel was incubated with the eluate from heparin affinity chromatography for 2 h at 22 C, and transferred to a Bio-Spin chromatography column (BioRad). The flow-through was collected for analysis of protease activity. As controls, an additional column was prepared with a monoclonal antibody against human mast cell chymase and a second column with no bound antibody.
# [3] = tested on: monocyte; conditions: cited from earlier work
# [4] = biological target: IGF-I (Homo sapiens, UniProt P05019); conditions: IGFBP-1 purified from amniotic fluid; cited from earlier work
# [5] = biological target: IGF-II (Homo sapiens, UniProt P01344); conditions: IGFBP-1 purified from amniotic fluid; cited from earlier work
# Chain of IGF-II (P01344 25-91): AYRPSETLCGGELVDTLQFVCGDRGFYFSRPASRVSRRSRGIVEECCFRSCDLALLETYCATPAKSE
# Chain of IGF-I (P05019 49-118): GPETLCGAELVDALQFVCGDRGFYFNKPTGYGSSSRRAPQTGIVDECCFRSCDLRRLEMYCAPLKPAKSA
Molecule,decrease of bactericidal activity [1],pH above which action on IGFBP-1 is greater [2],effect on IGFBP-1 (proteolysis) after HPLC-passage ([2]; after reverse-phase HPLC),"time until proteolysis of phosphorylated IGFBP-1 is seen ([2]; protease:substrate molar ratio 1:3,500)",concentration at which proteolytic effect on IGFBP-1 is noticeable ([2]; purified preparation),concentration level required for monocyte chemotaxis [3],association constant for IGF-I [4],association constant for IGF-II [5] [L/mol]
"azurocidin: protein from granules of human polymorphonuclear leukocytes, SEQ ID NO. 1; identified here as IGFBP-1 specific protease (protein, listed as Homo sapiens) IVGGRKARPRQFPFLASIQNQGRHFCGGALIHARFVMTAASCFQSQNPGVSTVVLGAYDLRRRERQSRQTFSISSMSENGYDPQQNLNDLMLLQLDREANLTSSVTILPLPLQNATVEAGTRCQVAGWGSQRSGGRLSRFPRFVNVTVTPEDQCRPNNVCTGVLTRRGGICNGDGGTPLVCEGLAHGVASFSLGPCGRGPDFFTRVALFRDWIDGVLNNPGPGPA",at least 50%,> 6,without effect,within minutes,nanomolar,micromolar,,
"IGFBP-1 purified from amniotic fluid: 28 kDa IGF-binding protein purified from human amniotic fluid (protein, UniProt P08833 26-259, looked up) Insulin-like growth …: APWQCAPCSAEKLALCPPVSASCSEVTRSAGCGCCPMCALPLGAACGVATARCARGLSCRALPGEQQPLHALTRGQGACVQESDASAPHAAEAGSPESPESTEITEEELLDNFHLMAPSEEDHSILWDAISTYDGSKALHVTNIKKWKEPCRIELYRVVESLAKAQETSGEEISKFYLPNCNKNGFYHSRQCETSMDGEAGLCWCVYPWNGKRIPGSPEIRGDPNCQIYFNVQN",,,,,,,approximately 6.6×10^9 L/mol,~3.2e+09
